Results from the supplement of paper PMC12855868.

B1: library; numbered along this chain (parent)
chain: MAAAGGARLLRAASAVLGGPAGRWLHHAGSRAGSSGLLRNRGPGGSAEASRSLSVSARARSSSEDKITVHFINRDGETLTTKGKVGDSLLDVVVENNLDIDGFGACEGTLACSTCHLIFEDHIYEKLDAITDEENDMLDLAYGLTDRSRLGCQICLTKSMDNMTVRVPETVADARQSIDVGKTS

Variants of: B1
Assay: scaled log2 fold change in cell abundance, elesclomol vs control (0 = silent mean, 1 = nonsense mean) (scaled log2 ratio); higher = higher viability under elesclomol (loss of FDX1 cuproptosis function)
Settings: glucose 10 mM
Method: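 Deep mutational scan of full-length human FDX1: a pooled saturation-mutagenesis ORF library (every residue 2-184 mutated to all 19 amino acids plus stop, and silent codons where available) was expressed by lentivirus in FDX1-knockout ABC1 (14 days) or HEK293T (11 days) cells grown with elesclomol (ES) or DMSO control. Variant abundance came from ORF sequencing. The log2 fold change (ES vs control, mean of duplicates) was centred on the silent-variant mean (0) and scaled to the nonsense-variant mean (1). Higher values mean greater viability under ES, i.e. loss of FDX1 function in cuproptosis.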

[1] = with ABC1 FDX1 KO, elesclomol 5 nM, 14 days
[2] = with HEK293T FDX1 KO, elesclomol 40 nM, 11 days
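Note: variant abundance is its share of total variant reads in each endpoint sample, from next-generation sequencing of the integrated ORF PCR-amplified out of genomic DNA.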

Variant | scaled log2 fold change [1] | scaled log2 fold change [2]
L9Q | -0.0581 | 1.04
L9H | -0.458 | 0.226
L9G | 0.0757 | 1.11
L9V | 0.286 | -0.433
L9E | 0.282 | -0.224
L9W | 0.434 | 0.233
L9Y | 0.485 | -0.192
A13F | 0.0208 | 1.34
A13N | 0.0507 | -0.531
A13Q | 0.0333 | 0.653
A13R | -0.131 | 0.251
A13W | 0.54 | -0.436
A13E | 0.269 | 0.026
A13M | -0.148 | 0.232
A13D | 0.543 | -0.132
A13K | 0.137 | -0.0857
A13H | 0.0738 | -1.05
A13I | -0.0121 | 0.147
A13G | 0.519 | –
A13P | 0.188 | –
A13V | 0.347 | –
A13C | 0.224 | 0.158
A13S | 0.157 | 0.0322
A13T | 0.0105 | -0.0204

Variant | scaled log2 fold change [1] | scaled log2 fold change [2]
A13Y | -0.585 | 0.259
A13L | 0.256 | 0.56
A4W | 0.154 | -0.542
A4C | 0.0627 | -1.09
A4R | -0.535 | -1.29
A4L | -0.0228 | 0.193
A4T | 0.364 | 0.164
A4F | -0.326 | 0.068
A4Q | -0.35 | –
A4I | 0.158 | 0.102
A4D | 0.12 | -0.0733
A4M | 0.0396 | -0.34
A4Y | 0.257 | 0.669
A4S | 0.221 | 0.988
A4N | 0.0756 | -0.335
A4K | 0.11 | 0.267
A4G | -0.52 | -0.212
A4V | -0.0619 | -0.566
A4E | -0.03 | -0.0483
A12G | 0.259 | -0.297
A12K | 0.0242 | -0.213
A12E | 0.118 | 0.751
A12P | -0.154 | -0.436
A12I | 0.306 | -0.67

Variant | scaled log2 fold change [1] | scaled log2 fold change [2]
A12H | 0.526 | 0.197
A12T | -0.00479 | -0.247
A12Q | 0.144 | 0.91
A12L | 0.128 | -0.0278
A12V | 0.373 | –
A12C | 0.0882 | 0.2
A12N | -0.0628 | 0.996
A12S | 0.0823 | 1.03
A12M | -0.178 | -0.222
A12W | 0.171 | –
A12Y | 0.376 | 0.577
A12D | 0.231 | 0.265
A12R | -0.455 | 0.571
A12F | 0.00609 | -0.148
A15C | 0.107 | 0.017
G6A | 0.239 | -0.652
G6F | 0.153 | -0.294
G6W | 0.149 | 0.125
G6R | 0.173 | 0.123
G6Y | -0.0292 | 0.639
G6N | 0.371 | 0.29
G6P | 0.13 | 0.0736
G6I | 0.0452 | -0.31
G6K | 0.0797 | -0.166

Variant | scaled log2 fold change [1] | scaled log2 fold change [2]
G6S | -0.502 | -0.676
G6C | 0.339 | 0.86
G6M | -0.159 | -0.651
G6V | -0.0163 | 0.974
G6D | -0.00796 | -0.86
G6L | 0.106 | 0.412
G6Q | 0.208 | -0.0414
G6E | 0.0669 | –
G6H | 0.23 | -1
A7F | 0.0991 | 0.612
A7E | 0.407 | –
A7R | 0.122 | –
A7Q | -0.0571 | –
A7I | 0.0041 | -0.412
A7C | 0.0253 | 0.515
A7W | 0.0847 | 0.227
A7D | 0.0271 | 0.843
A7G | 0.124 | -0.098
A7V | -0.5 | 0.903
A7S | 0.0146 | 0.154
A7T | 0.268 | –
A7M | -0.526 | 0.892
A7Y | 0.0823 | 0.506
A7N | -0.22 | 0.0857

Variant | scaled log2 fold change [1] | scaled log2 fold change [2]
A7L | 0.0503 | 0.262
A7P | 0.316 | –
A7H | 0.443 | 0.0712
A7K | 0.136 | -0.253
A3S | 0.514 | -0.0887
A3R | 0.464 | -0.63
A3I | 0.134 | -0.0748
A3F | -0.338 | 0.0034
A3V | 0.0935 | 0.00813
A3Y | -0.181 | 0.561
A3K | 0.135 | 0.17
A3E | 0.299 | 1.21
A3H | 0.204 | -0.0465
A3N | -0.349 | -0.21
A3P | 0.16 | -0.173
A3D | 0.186 | 0.572
A3G | 0.242 | -0.188
A3L | -0.261 | 0.507
A3C | 0.227 | 0.756
A3Q | 0.292 | -0.249
A3W | 0.38 | 0.562
A3M | -0.131 | 0.396
A3T | 0.122 | -0.0717
